Reference: patent US20170022281A1 (AbbVie / Abbott, published 2017)

T1: human PRLR on cells (human, UniProt P16471 25-622)
T1 sequence: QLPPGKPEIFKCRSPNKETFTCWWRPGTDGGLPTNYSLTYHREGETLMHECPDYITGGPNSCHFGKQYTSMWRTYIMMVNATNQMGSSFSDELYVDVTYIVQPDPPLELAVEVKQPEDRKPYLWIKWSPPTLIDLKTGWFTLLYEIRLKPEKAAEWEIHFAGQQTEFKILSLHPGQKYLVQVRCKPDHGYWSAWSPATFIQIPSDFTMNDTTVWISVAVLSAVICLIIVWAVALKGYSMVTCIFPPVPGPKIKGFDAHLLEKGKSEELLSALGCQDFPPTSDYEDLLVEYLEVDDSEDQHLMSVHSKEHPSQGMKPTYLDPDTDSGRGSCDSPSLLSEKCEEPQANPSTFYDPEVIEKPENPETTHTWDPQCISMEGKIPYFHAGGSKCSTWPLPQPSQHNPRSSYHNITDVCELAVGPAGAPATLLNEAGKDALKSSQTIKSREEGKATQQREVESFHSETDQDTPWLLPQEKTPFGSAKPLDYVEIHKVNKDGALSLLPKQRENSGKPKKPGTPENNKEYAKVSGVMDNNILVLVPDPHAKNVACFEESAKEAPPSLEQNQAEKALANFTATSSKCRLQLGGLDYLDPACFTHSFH

T2: rat PRLR on Nb2-11 rat lymphoma cells (rat, UniProt P05710 20-610)
T2 sequence (looked up): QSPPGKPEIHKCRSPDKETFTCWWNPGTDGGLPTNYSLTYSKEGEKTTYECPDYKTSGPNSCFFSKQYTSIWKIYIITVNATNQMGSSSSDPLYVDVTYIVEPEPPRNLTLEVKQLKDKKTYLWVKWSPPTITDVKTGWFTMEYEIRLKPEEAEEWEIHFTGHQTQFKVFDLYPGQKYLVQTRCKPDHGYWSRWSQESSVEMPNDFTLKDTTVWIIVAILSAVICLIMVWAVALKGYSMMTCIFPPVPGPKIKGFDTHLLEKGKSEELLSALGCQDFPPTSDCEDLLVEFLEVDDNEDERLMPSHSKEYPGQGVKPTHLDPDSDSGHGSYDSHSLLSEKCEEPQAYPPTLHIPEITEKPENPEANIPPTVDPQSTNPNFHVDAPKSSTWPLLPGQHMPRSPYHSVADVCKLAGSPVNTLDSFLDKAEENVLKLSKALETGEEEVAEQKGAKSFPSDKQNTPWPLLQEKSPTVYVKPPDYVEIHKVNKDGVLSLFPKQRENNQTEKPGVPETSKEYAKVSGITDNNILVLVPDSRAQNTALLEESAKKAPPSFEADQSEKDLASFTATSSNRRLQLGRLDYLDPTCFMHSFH

T3: cyno PRLR (Biacore antigen) (cyno, UniProt A0A2K5WXK1 25-234)
T3 construct: also called cyPRLR
T3 sequence: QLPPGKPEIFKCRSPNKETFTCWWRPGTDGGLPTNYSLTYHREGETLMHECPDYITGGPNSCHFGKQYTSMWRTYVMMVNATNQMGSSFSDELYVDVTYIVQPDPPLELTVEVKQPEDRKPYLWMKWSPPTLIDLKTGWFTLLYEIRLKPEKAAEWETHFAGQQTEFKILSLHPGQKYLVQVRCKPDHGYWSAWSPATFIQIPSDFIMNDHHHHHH

T4: murine PRLR (Biacore antigen) (murine, UniProt Q08501 20-229, limits assumed)
T4 construct: also called muPRLR
T4 sequence (looked up): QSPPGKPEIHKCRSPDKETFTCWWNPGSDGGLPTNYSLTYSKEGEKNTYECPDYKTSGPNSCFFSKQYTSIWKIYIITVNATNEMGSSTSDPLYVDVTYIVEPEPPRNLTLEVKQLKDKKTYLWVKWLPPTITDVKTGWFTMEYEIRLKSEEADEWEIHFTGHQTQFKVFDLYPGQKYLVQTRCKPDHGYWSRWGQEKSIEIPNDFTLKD

T5: cyno PRLR ECD-his6 protein (cyno)
T5 chain: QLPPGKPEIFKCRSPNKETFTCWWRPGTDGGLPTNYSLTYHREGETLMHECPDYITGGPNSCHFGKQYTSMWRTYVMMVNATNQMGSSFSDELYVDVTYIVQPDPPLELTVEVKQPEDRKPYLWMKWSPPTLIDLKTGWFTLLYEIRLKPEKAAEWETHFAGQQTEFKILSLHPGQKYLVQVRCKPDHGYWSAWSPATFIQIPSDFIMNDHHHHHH

T6: rat PRLR ECD-Fc fusion protein (rat, UniProt P05710 20-229)
T6 construct: extracellular domain; not shown: Fc region (captured by goat anti-human Fc)
T6 sequence (looked up): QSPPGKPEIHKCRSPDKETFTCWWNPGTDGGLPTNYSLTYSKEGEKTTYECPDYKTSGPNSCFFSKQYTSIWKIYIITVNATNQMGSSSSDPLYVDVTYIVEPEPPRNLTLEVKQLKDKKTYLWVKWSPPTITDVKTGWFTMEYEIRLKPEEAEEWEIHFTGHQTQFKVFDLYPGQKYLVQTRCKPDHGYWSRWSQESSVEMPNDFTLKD

T7: mouse PRLR ECD-Fc fusion protein (mouse, UniProt Q08501 20-229)
T7 construct: extracellular domain; not shown: Fc region (captured by goat anti-human Fc)
T7 sequence (looked up): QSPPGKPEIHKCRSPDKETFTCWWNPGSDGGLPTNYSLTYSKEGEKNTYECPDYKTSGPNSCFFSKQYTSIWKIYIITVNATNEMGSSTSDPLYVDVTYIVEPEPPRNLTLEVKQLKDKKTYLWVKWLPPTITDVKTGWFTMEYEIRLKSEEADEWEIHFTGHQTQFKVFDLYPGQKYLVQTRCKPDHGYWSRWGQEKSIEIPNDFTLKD

T8: human PRLR (Biacore antigen) (human, UniProt P16471 25-234, limits assumed)
T8 construct: The construct injected over captured antibody is not described (a soluble form is likely); also called huPRLR
T8 sequence: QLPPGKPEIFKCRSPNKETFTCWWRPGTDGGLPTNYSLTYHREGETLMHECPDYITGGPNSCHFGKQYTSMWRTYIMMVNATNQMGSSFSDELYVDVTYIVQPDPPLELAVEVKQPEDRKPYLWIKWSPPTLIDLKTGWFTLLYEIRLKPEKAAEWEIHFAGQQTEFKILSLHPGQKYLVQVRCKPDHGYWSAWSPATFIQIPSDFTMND

T9: human PRLR ECD-Fc fusion protein (human, UniProt P16471 25-233)
T9 construct: not shown: Fc region (captured by goat anti-human Fc)
T9 sequence: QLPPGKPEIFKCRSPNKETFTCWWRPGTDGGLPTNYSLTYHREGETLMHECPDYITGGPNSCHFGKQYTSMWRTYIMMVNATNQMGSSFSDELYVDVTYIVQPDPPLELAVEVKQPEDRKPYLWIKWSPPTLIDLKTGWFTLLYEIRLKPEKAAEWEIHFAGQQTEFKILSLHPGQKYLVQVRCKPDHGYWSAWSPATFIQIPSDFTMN


Key:
[1] = target: T1, human PRLR on cells; assay: cell-based or functional assay
[2] = target: cyno PRLR on Baf3-cyPRLR cells (cyno); assay: cell-based or functional assay
[3] = target: T2, rat PRLR on Nb2-11 rat lymphoma cells; assay: cell-based or functional assay
[4] = target: T3, cyno PRLR (Biacore antigen); assay: SPR Biacore
Outline: (§1)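 Association rate, dissociation rate and dissociation constant were measured by surface plasmon resonance on a Biacore instrument. PRLR antigen was tested at 600 nM, 66.67 nM and 7.41 nM, a 3-point, 9-fold dilution series. Constants came from a 1:1 binding model fit (local Rmax, mass-transport term included) in Biacore T200 Evaluation Software.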

[5] = target: T4, murine PRLR (Biacore antigen); assay: SPR Biacore
Outline: as §1

[6] = target: T5, cyno PRLR ECD-his6 protein; assay: ELISA on ECD
Method: (§2) Plates were blocked for 1 hour with Superblock (Pierce) and washed (3×) with wash buffer (lx PBS (pH 7.4), 0.05% Tween 20). ECD proteins were bound to the appropriate antibody (1 hour) in binding buffer (wash buffer plus 10% Superblock), washed (3×, wash buffer), and then incubated with serial dilutions of antibodies (1 hour) in binding buffer. After washing (3×, wash buffer), secondary antibodies conjugated to HRP were bound (1 hour) in binding buffer, washed (3×, wash buffer), and incubated with TMB substrate (Pierce) to develop signal for 3-5 minutes, stopped with 2N H₂SO₄ and scanned at […]. Curves were fit with GraphPad 5 (Prizm) and EC50's were determined with curve fitting function of GraphPad 5.

[7] = target: T6, rat PRLR ECD-Fc fusion protein; assay: ELISA on ECD
Method: as §2

[8] = target: T7, mouse PRLR ECD-Fc fusion protein; assay: ELISA on ECD
Method: as §2

[9] = target: T8, human PRLR (Biacore antigen); assay: SPR Biacore
Outline: as §1

[10] = target: T9, human PRLR ECD-Fc fusion protein; assay: ELISA on ECD
Method: as §2

| Binder | Baf3-hPRLR proliferation IC50 [1] | Baf3-cyPRLR proliferation IC50 [2] | Nb2-11 proliferation IC50 [3] | Kd [4] | koff [4] | kon [4] | Kd [5] | koff [5] | kon [5] | EC50 [6] | EC50 [7] | EC50 [8] | Kd [9] | koff [9] | kon [9] | EC50 [10] |
| --- | --- | --- | --- | --- | --- | --- | --- | --- | --- | --- | --- | --- | --- | --- | --- | --- |
| chAb12 (antibody, human IgG1, kappa, V domains shown) VH: DVQLQESGPGLVKPSQSLSLTCTVTGYSITSDYAWNWIRQFPGNKLEWMGYIGYSGRTSFNPSLKSRISITRDTSKNQFFLQLNSVTTEDTATYYCARGGFAMDYWGQGTSVTVSS VL: QIVLTQSPGIMSASPGEKVTMTCSASSSVTYMYWYQQKPRSSPKPWIYLTSNLASGVPARFSGSGSGTSYSLTISSMEAEDGATYYCQQWSSTPPLTFGGGTKLELNT | 10.7 µg/mL | > 10 µg/mL | 41.4 µg/mL | – | – | – | – | – | – | – | – | – | – | – | – | – |
| Ab28 (antibody, human IgG1, kappa, humanized from Ab5; G1; also called Ab2 HC.1 and Ab2 LC.1b) heavy: not shown light: DVVMTQTPLSLSVTPGQPASISCRSSQRLVHSNGNTYLHWYLQKPGQSPQLLIYKVSNRFSGVPDRFSGSGSGTDFTLKISRVEAEDVGVYYCSQSTHVPWTFGGGTKVEIKRTVAAPSVFIFPPSDEQLKSGTASVVCLLNNFYPREAKVQWKVDNALQSGNSQESVTEQDSKDSTYSLSSTLTLSKADYEKHKVYACEVTHQGLSSPVTKSFNRGEC | 0.22 µg/mL | 0.31 µg/mL | – | 1970 pM | 0.000619 s⁻¹ | 315000 M⁻¹ s⁻¹ | 52000 pM | 0.00606 s⁻¹ | 117000 M⁻¹ s⁻¹ | 96.5 pM | 416 pM | 292 pM | – | – | – | – |
| Ab31 (antibody, human IgG1, kappa, humanized from Ab5; G1; also called Ab2 HC.1a and Ab2 LC.1b) heavy: not shown light: DVVMTQTPLSLSVTPGQPASISCRSSQRLVHSNGNTYLHWYLQKPGQSPQLLIYKVSNRFSGVPDRFSGSGSGTDFTLKISRVEAEDVGVYYCSQSTHVPWTFGGGTKVEIKRTVAAPSVFIFPPSDEQLKSGTASVVCLLNNFYPREAKVQWKVDNALQSGNSQESVTEQDSKDSTYSLSSTLTLSKADYEKHKVYACEVTHQGLSSPVTKSFNRGEC | 0.17 µg/mL | 0.39 µg/mL | – | 2080 pM | 0.000643 s⁻¹ | 310000 M⁻¹ s⁻¹ | 55700 pM | 0.00682 s⁻¹ | 122000 M⁻¹ s⁻¹ | 256 pM | 718 pM | 333 pM | 1670 pM | 0.000537 s⁻¹ | 322000 M⁻¹ s⁻¹ | 453 pM |
| Ab27 (antibody, human IgG1, kappa, V domains shown, humanized from Ab5; G1; also called Ab2 HC.1 and Ab2 LC.1a) VH: EVQLVQSGAEVKKPGSSVKVSCKASGYTFTSFWMHWVRQAPGQGLEWMGVIDPSDTYTNYNQKFKGRVTITADESTSTAYMELSSLRSEDTAVYYCARGDYSNWFTYWGQGTLVTVSS VL: DVVMTQTPLSLSVTPGQPASISCRSSQRLVHSNGNTYLHWYLQKPGQSPQLLIYKVSNRFSGVPDRFSGSGSGTDFTLKISRVEAEDVGVYFCSQSTHVPWTFGGGTKVEIKR | 0.16 µg/mL | 0.22 µg/mL | – | 1560 pM | 0.00052 s⁻¹ | 333000 M⁻¹ s⁻¹ | 38300 pM | 0.00512 s⁻¹ | 134000 M⁻¹ s⁻¹ | 102 pM | 125 pM | 185 pM | 1250 pM | 0.000443 s⁻¹ | 356000 M⁻¹ s⁻¹ | 170 pM |
| Ab29 (antibody, human IgG1, kappa, humanized from Ab5; G1; also called Ab HC.1a and Ab2 LC.1) heavy: not shown light: DIVMTQTPLSLSVTPGQPASISCRSSQRLVHSNGNTYLHWYLQKPGQSPQLLIYKVSNRFSGVPDRFSGSGSGTDFTLKISRVEAEDVGVYYCSQSTHVPWTFGGGTKVEIKRTVAAPSVFIFPPSDEQLKSGTASVVCLLNNFYPREAKVQWKVDNALQSGNSQESVTEQDSKDSTYSLSSTLTLSKADYEKHKVYACEVTHQGLSSPVTKSFNRGEC | 0.15 µg/mL | 0.23 µg/mL | – | 2240 pM | 0.000675 s⁻¹ | 301000 M⁻¹ s⁻¹ | 53000 pM | 0.00634 s⁻¹ | 120000 M⁻¹ s⁻¹ | 153 pM | 688 pM | 238 pM | 1790 pM | 0.00056 s⁻¹ | 313000 M⁻¹ s⁻¹ | 269 pM |
| Ab26 (antibody, human IgG1, kappa, humanized from Ab5; G1; also called Ab HC.1 and Ab2 LC.1) heavy: not shown light: DIVMTQTPLSLSVTPGQPASISCRSSQRLVHSNGNTYLHWYLQKPGQSPQLLIYKVSNRFSGVPDRFSGSGSGTDFTLKISRVEAEDVGVYYCSQSTHVPWTFGGGTKVEIKRTVAAPSVFIFPPSDEQLKSGTASVVCLLNNFYPREAKVQWKVDNALQSGNSQESVTEQDSKDSTYSLSSTLTLSKADYEKHKVYACEVTHQGLSSPVTKSFNRGEC | 0.23 µg/mL | 0.25 µg/mL | – | – | – | – | – | – | – | 151 pM | 164 pM | 201 pM | – | – | – | – |
